Measurements as given in patent US20240384250A1, “FIBROBLAST GROWTH FACTOR 23 MODULATING COMPOUNDS” (THE UAB RESEARCH FOUNDATION, priority 2021, published 2024).
“Also recorded” adds a separate entry of the source.

T1: FGF23 binding to FGFR4 (Homo sapiens, UniProt P22455+Q9GZV9)
T1 construct: Fc-coupled FGFR ectodomains were immobilized on protein A/G beads; purchased R&D Systems 2604FG025/CF or 2629FG025/CF; 685FR050
T1 sequence (Q9GZV9 25-251): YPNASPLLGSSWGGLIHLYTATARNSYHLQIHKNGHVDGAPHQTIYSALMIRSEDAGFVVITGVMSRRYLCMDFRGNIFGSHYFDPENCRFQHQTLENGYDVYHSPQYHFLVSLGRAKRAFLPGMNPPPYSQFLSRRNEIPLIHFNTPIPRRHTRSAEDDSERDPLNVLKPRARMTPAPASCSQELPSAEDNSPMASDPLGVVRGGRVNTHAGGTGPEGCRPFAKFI
T1 sequence (P22455 22-369 limits assumed): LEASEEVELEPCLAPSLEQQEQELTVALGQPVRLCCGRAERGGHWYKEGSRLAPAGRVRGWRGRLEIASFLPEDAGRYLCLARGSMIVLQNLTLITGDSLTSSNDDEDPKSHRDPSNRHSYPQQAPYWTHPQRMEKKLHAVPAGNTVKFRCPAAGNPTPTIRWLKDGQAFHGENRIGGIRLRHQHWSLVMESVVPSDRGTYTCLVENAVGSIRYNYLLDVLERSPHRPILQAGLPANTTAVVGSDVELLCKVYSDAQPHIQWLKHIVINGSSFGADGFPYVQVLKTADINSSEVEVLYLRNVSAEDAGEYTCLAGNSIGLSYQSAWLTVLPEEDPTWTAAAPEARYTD

B1: FGF23: recombinant fibroblast growth factor 23 protein from R&D Systems (protein)
chain: YPDTSPLLGSNWGSLTHLYTATARTSYHLQIHRDGHVDGTPHQTIYSALMITSEDAGSVVITGAMTRRFLCMDLHGNIFGSLHFSPENCKFRQWTLENGYDVYLSQKHHYLVSLGRAKRIFQPGTNPPPFSQFLARRNEVPLLHFYTVRPRRHTRSAEDPPERDPLNVLKPRPRATPVPVSCSRELPSAEEGGPAASDPLGVLRRGRGDARGGAGGADRCRPFPRFV
B2: sKL: recombinant soluble α-klotho ectodomain, mouse aa 35-982 and human aa 34-981, FLAG- or Strep/His-tagged, purified from HEK293 cells (protein)
chain: EPGDGAQTWARFSRPPAPEAAGLFQGTFPDGFLWAVGSAAYQTEGGWQQHGKGASIWDTFTHHPLAPPGDSRNASLPLGAPSPLQPATGDVASDSYNNVFRDTEALRELGVTHYRFSISWARVLPNGSAGVPNREGLRYYRRLLERLRELGVQPVVTLYHWDLPQRLQDAYGGWANRALADHFRDYAELCFRHFGGQVKYWITIDNPYVVAWHGYATGRLAPGIRGSPRLGYLVAHNLLLAHAKVWHLYNTSFRPTQGGQVSIALSSHWINPRRMTDHSIKECQKSLDFVLGWFAKPVFIDGDYPESMKNNLSSILPDFTESEKKFIKGTADFFALCFGPTLSFQLLDPHMKFRQLESPNLRQLLSWIDLEFNHPQIFIVENGWFVSGTTKRDDAKYMYYLKKFIMETLKAIKLDGVDVIGYTAWSLMDGFEWHRGYSIRRGLFYVDFLSQDKMLLPKSSALFYQKLIEKNGFPPLPENQPLEGTFPCDFAWGVVDNYIQVDTTLSQFTDLNVYLWDVHHSKRLIKVDGVVTKKRKSYCVDFAAIQPQIALLQEMHVTHFRFSLDWALILPLGNQSQVNHTILQYYRCMASELVRVNITPVVALWQPMAPNQGLPRLLARQGAWENPYTALAFAEYARLCFQELGHHVKLWITMNEPYTRNMTYSAGHNLLKAHALAWHVYNEKFRHAQNGKISIALQADWIEPACPFSQKDKEVAERVLEFDIGWLAEPIFGSGDYPWVMRDWLNQRNNFLLPYFTEDEKKLIQGTFDFLALSHYTTILVDSEKEDPIKYNDYLEVQEMTDITWLNSPSQVAVVPWGLRKVLNWLKFKYGDLPMYIISNGIDDGLHAEDDQLRVYYMQNYINEALKAHILDGINLCGYFAYSFNDRTAPRFGLYRYAADQFEPKASMKHYRKIIDSNGFPGPETLERFCPEEFTVCTECSFFHTRKS
modifications: left off: small tags and cut ends
notes: recombinant soluble α-klotho ectodomain, mouse aa 35-982 and human aa 34-981, FLAG- or Strep/His-tagged, purified from HEK293 cells

How the values were obtained:
FGF23 binding to FGFR4 = biological target: T1, FGF23 binding to FGFR4; assay: Plate-based binding, FGF23 coated, then sKL, heparin or PBS, then Fc-FGFR; settings: with sKL, with heparin 0.4 USP, or alone
Description: Proteins were coated on 96-well plates (MaxiSorp; 439454, Thermo Fisher Scientific), and proteins were added to wells in 100 μl of enzyme-linked immunosorbent assay (ELISA) coating buffer (E107, Bethyl Laboratories) with a lid placed overtop and incubated at 4° C. overnight. Plates were washed 5× with 350 μl of assay buffer (50 mM Tris [pH 7.4], 200 mM NaCl, 0.01% Tween 20) on a 50 TS microplate washer (BioTek). Plates were blocked for 1 hour in 200 μl of assay buffer with 0.5% BSA. Plates were washed as before, and proteins were incubated on plates in 100 μl of assay buffer with 0.5% BSA. Proteins or heparin was incubated in orders described in the respective figure legends. Assays using FLAG-tag-based detection were incubated with anti-FLAG coupled to HRP at 1:20,000, and assays using Fc detection were incubated with anti-human Fc coupled to HRP at 1:10,000. Plates were washed as above, and 100 μl of 3,3′,5,5′-tetramethylbenzidine (TMB) substrate (E102, Bethyl Laboratories) was added for 15 to 20 minutes until positive wells developed a dark blue color. Reactions were stopped with ELISA stop solution (E115, Bethyl Laboratories) and analyzed using the Synergy HI plate reader (BioTek) at 450 nm wavelength. […] As a control to remove background absorbance values, wells were coated with an equal amount of BSA to match the amount of protein coated in experimental wells and treated the same as experimental wells. To study the effects of sKL on the binding between paracrine FGFs and FGFRs, plates were run as above except coated with paracrine FGFs. Fc-FGFR1 was preincubated with sKL or vehicle for 60 minutes, and then the combination was added to wells and the assay was run as before.

[1] = Serum phosphate and intact FGF23 after sKL injection in rats; type: in vivo, rat; settings: sKL 100 μg/kg tail vein
Description: To determine the half-life of recombinant sKL protein in the circulation, rats were injected with the Strep-tagged mouse sKL that was purified as described above. Each group consisted of 3 male Sprague Dawley rats (9 weeks of age and weighing approximately 300 g). For injections and bleeding, rats were anesthetized with 2.5% isoflurane. For injections, a shielded i.v. catheter (BD Insyte Autoguard 0.7×19 mm, catalog no. 381412) was inserted into the lateral tail vein and flushed with 100 μl of isotonic saline (0.9%). One milliliter of purified sKL protein dissolved in isotonic saline (100 μg/kg) or isotonic saline was then injected, and the catheter was flushed again with 100 μl of isotonic saline. For bleeding, a shielded i.v. catheter was inserted into the lateral tail vein. Blood samples (300 μl) were taken after 1, 3, 5, 10, 15, 30, and 60 minutes as well as 3, 6, 12, and 48 hours. For collections from 15 minutes to 48 hours postinjection, a separate i.v. catheter was inserted each time to draw blood. […] Reactions were stopped with ELISA stop solution (E115, Bethyl Laboratories) and analyzed using the Synergy HI plate reader (BioTek) at 450 nm wavelength. Amounts of sKL were calculated by taking the slope of the standard curve and calculating where the sample points fit in.

Molecule | binding of coated FGF23 to Fc-FGFR4 (FGF23 binding to FGFR4) | serum phosphate levels ([1]; serial bleeds) | serum intact FGF23 levels ([1]; serial bleeds incl. 48 hours)
B1 | low affinity; also recorded: weak affinity | – | –
B2 | highest FGF23-sKL affinities; also recorded: increased; also recorded: the strongest | not significantly altered | increases in serum concentrations of FGF23; also recorded: significantly elevated
